Assay results from patent publication US20180155451A1 (published 2018).

T1: FcγRIIa R (human, UniProt P12318 34-217)
T1 construct: extracellular domain; also called FcgRIIa R; FcγRIIa type R
T1 sequence (looked up): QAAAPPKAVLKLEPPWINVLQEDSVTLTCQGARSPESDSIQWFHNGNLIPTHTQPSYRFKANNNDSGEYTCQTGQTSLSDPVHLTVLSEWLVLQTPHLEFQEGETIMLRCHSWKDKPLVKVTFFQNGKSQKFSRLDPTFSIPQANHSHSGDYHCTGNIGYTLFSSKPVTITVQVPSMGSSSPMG

T2: FcγRIIb (human, UniProt P31994 43-217)
T2 construct: extracellular domain; also called FcgRIIb
T2 sequence (looked up): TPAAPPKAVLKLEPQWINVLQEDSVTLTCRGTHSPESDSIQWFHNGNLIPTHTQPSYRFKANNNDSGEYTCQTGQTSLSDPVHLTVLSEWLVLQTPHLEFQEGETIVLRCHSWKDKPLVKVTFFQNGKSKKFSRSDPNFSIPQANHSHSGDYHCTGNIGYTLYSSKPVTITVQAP

T3: FcγRIIa H (human, UniProt P12318 34-217)
T3 construct: extracellular domain; Soluble extracellular domain with C-terminal His tag, expressed in FreeStyle293 cells; also called FcgRIIa H; 2aH; not shown: C-terminal His tag
T3 sequence (looked up): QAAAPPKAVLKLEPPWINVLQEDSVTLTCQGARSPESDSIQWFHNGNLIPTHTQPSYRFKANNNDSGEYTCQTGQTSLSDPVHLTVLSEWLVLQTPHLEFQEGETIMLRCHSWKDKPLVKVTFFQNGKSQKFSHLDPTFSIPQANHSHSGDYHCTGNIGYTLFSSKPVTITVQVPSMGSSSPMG

T4: FcγRIIb (human, UniProt P31994 43-217)
T4 construct: extracellular domain; Soluble extracellular domain with C-terminal His tag, expressed in FreeStyle293 cells; also called FcgRIIb; 2b; not shown: C-terminal His tag
T4 sequence (looked up): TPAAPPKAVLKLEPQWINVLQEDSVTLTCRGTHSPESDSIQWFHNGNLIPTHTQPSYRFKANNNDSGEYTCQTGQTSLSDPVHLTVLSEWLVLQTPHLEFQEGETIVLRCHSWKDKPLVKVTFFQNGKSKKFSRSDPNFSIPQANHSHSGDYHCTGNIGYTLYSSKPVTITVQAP


How the values were obtained:
FcγRIIa R [1] = target: T1, FcγRIIa R; test: He/Con_2aR divided by He/Con_2b (FcγRIIa R over FcγRIIb); SPR (Biacore)
FcγRIIa R [2] = target: T1, FcγRIIa R; test: SPR (Biacore), captured antibody, FcγR analyte; binding relative to GpH7-A5/GpH7-B3/GpL16-k0 = 100
FcγRIIb [3] = target: T2, FcγRIIb; test: as above
FcγRIIa H = target: T3, FcγRIIa H; test: SPR (Biacore), antibody captured, FcγR as analyte; relative to HeCon Ab
Method: (§1) The heterodimerized antibodies He Abs in which one of the H chains was introduced with an alteration were assayed for their binding activities to each activating FcγR and inhibitory FcγR according to the method described in Example 4. […] The activating FcγRs in FIGS. 26, 27, 28, and 29 are FcγRIa, FcγRIIa (R), FcγRIIa (H), and FcγRIIIa, respectively.
(§2) Analysis of interaction between objective antibody and the FcγR was carried out using Biacore T100 (GE Healthcare). HBS-EP+ (GE Healthcare) was used as the running buffer, and the measurement temperature was set to 25° C. Chips produced by immobilizing the antigen peptide by the amine coupling method to a Series S Sencor Chip CM5 (GE Healthcare), or alternatively, chips produced by allowing preliminarily biotinylated antigen peptides to interact with and immobilize onto a Series S Sensor Chip SA (certified) (GE Healthcare) were used. Antibodies of interest were captured onto an antigen peptide-immobilized chip, and allowed to interact to each FcγR diluted with running buffer. To regenerate and repeatedly use the chip, the antibodies captured on the chip were washed off by reacting 10 mM glycine-HCl, pH 1.5.

FcγRIIb [4] = target: T4, FcγRIIb; test: as above
Method: as §1, §2

IIaR/IIb (He_2aR/2b) (FcγRIIa R [1]) [ratio]	He/Con_2aR (IIaR binding) (FcγRIIa R [2]) [control=100]	He/Con_2b (IIb binding) (FcγRIIb [3]) [control=100]	He/Con_2aH (FcγRIIa H)	He/Con_2b (FcγRIIb [4])	Binder
			91.5 % of GpH7-A5/GpH7-B3/GpL16-k0 (=100)	107 % of GpH7-A5/GpH7-B3/GpL16-k0 (=100)	GpH7-A5/GpH7-B3 variant S239_07I/GpL16-k0 (antibody, human IgG1, kappa, Heterodimerized anti-glypican-3 IgG1; alteration in the GpH7-B3 chain only; also called He Ab) heavy 1: not shown heavy 2: not shown light: DIVMTQSPLSLPVTPGEPASISCQASESLVHSNRNTYLHWYLQKPGQSPQLLIYKVSNRFSGVPDRFSGSGSGTDFTLKISRVEAEDVGVYYCSQNTHVPPTFGQGTKVEIERTVAAPSVFIFPPSDEQLKSGTASVVCLLNNFYPREAKVQWKVDNALQSGNSQESVTEQDSKDSTYSLSSTLTLSKADYEKHKVYACEVTHQGLSSPVTKSFNRGEC
			94.2 % of GpH7-A5/GpH7-B3/GpL16-k0 (=100)	119 % of GpH7-A5/GpH7-B3/GpL16-k0 (=100)	GpH7-A5/GpH7-B3 variant S239_18N/GpL16-k0 (antibody, human IgG1, kappa, Heterodimerized anti-glypican-3 IgG1; alteration in the GpH7-B3 chain only; also called He Ab) heavy 1: not shown heavy 2: not shown light: DIVMTQSPLSLPVTPGEPASISCQASESLVHSNRNTYLHWYLQKPGQSPQLLIYKVSNRFSGVPDRFSGSGSGTDFTLKISRVEAEDVGVYYCSQNTHVPPTFGQGTKVEIERTVAAPSVFIFPPSDEQLKSGTASVVCLLNNFYPREAKVQWKVDNALQSGNSQESVTEQDSKDSTYSLSSTLTLSKADYEKHKVYACEVTHQGLSSPVTKSFNRGEC
			71.3 % of GpH7-A5/GpH7-B3/GpL16-k0 (=100)	105 % of GpH7-A5/GpH7-B3/GpL16-k0 (=100)	GpH7-A5/GpH7-B3 variant S267_01G/GpL16-k0 (antibody, human IgG1, kappa, Heterodimerized anti-glypican-3 IgG1; alteration in the GpH7-B3 chain only; also called He Ab) heavy 1: not shown heavy 2: not shown light: DIVMTQSPLSLPVTPGEPASISCQASESLVHSNRNTYLHWYLQKPGQSPQLLIYKVSNRFSGVPDRFSGSGSGTDFTLKISRVEAEDVGVYYCSQNTHVPPTFGQGTKVEIERTVAAPSVFIFPPSDEQLKSGTASVVCLLNNFYPREAKVQWKVDNALQSGNSQESVTEQDSKDSTYSLSSTLTLSKADYEKHKVYACEVTHQGLSSPVTKSFNRGEC

More lines, now with the values behind:

Binder	IIaR/IIb (He_2aR/2b) (FcγRIIa R [1]) [ratio]	He/Con_2aR (IIaR binding) (FcγRIIa R [2]) [control=100]	He/Con_2b (IIb binding) (FcγRIIb [3]) [control=100]	He/Con_2aH (FcγRIIa H)	He/Con_2b (FcγRIIb [4])
GpH7-A5/GpH7-B3 variant P329_01G/GpL16-k0 (antibody, human IgG1, kappa, He Ab; IgG1; mutation in one H chain only) heavy 1: not shown heavy 2: not shown light: DIVMTQSPLSLPVTPGEPASISCQASESLVHSNRNTYLHWYLQKPGQSPQLLIYKVSNRFSGVPDRFSGSGSGTDFTLKISRVEAEDVGVYYCSQNTHVPPTFGQGTKVEIERTVAAPSVFIFPPSDEQLKSGTASVVCLLNNFYPREAKVQWKVDNALQSGNSQESVTEQDSKDSTYSLSSTLTLSKADYEKHKVYACEVTHQGLSSPVTKSFNRGEC	1.32	55	41.7		
GpH7-A5/GpH7-B3 variant P238_16H/GpL16-k0 (antibody, human IgG1, kappa, Heterodimerized anti-glypican-3 IgG1; alteration in the GpH7-B3 chain only; also called He Ab) heavy 1: not shown heavy 2: not shown light: DIVMTQSPLSLPVTPGEPASISCQASESLVHSNRNTYLHWYLQKPGQSPQLLIYKVSNRFSGVPDRFSGSGSGTDFTLKISRVEAEDVGVYYCSQNTHVPPTFGQGTKVEIERTVAAPSVFIFPPSDEQLKSGTASVVCLLNNFYPREAKVQWKVDNALQSGNSQESVTEQDSKDSTYSLSSTLTLSKADYEKHKVYACEVTHQGLSSPVTKSFNRGEC				45.9 % of GpH7-A5/GpH7-B3/GpL16-k0 (=100)	115 % of GpH7-A5/GpH7-B3/GpL16-k0 (=100)
GpH7-A5/GpH7-B3 variant A330_03V/GpL16-k0 (antibody, human IgG1, kappa, He Ab; IgG1; mutation in one H chain only) heavy 1: not shown heavy 2: not shown light: DIVMTQSPLSLPVTPGEPASISCQASESLVHSNRNTYLHWYLQKPGQSPQLLIYKVSNRFSGVPDRFSGSGSGTDFTLKISRVEAEDVGVYYCSQNTHVPPTFGQGTKVEIERTVAAPSVFIFPPSDEQLKSGTASVVCLLNNFYPREAKVQWKVDNALQSGNSQESVTEQDSKDSTYSLSSTLTLSKADYEKHKVYACEVTHQGLSSPVTKSFNRGEC	1.43	74.9	52.4		
GpH7-A5/GpH7-B3 variant A330_07I/GpL16-k0 (antibody, human IgG1, kappa, He Ab; IgG1; mutation in one H chain only) heavy 1: not shown heavy 2: not shown light: DIVMTQSPLSLPVTPGEPASISCQASESLVHSNRNTYLHWYLQKPGQSPQLLIYKVSNRFSGVPDRFSGSGSGTDFTLKISRVEAEDVGVYYCSQNTHVPPTFGQGTKVEIERTVAAPSVFIFPPSDEQLKSGTASVVCLLNNFYPREAKVQWKVDNALQSGNSQESVTEQDSKDSTYSLSSTLTLSKADYEKHKVYACEVTHQGLSSPVTKSFNRGEC	1.27	85.6	67.1		
